Source: patent US20230313215A1 (published 2023)

Columns and labels:
[1] = molecular target: T1, 2x syn. clamp (two-PDZ clamp, nc=2); test: cell-based or functional assay
T1 chain: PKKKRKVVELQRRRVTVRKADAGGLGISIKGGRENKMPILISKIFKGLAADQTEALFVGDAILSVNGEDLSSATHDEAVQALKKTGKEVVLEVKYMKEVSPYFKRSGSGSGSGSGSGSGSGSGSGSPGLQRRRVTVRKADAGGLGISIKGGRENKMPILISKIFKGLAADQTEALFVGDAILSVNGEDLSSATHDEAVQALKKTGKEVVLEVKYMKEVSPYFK

[2] = molecular target: T2, 3x syn. clamp (three-PDZ clamp, nc=3); test: cell-based or functional assay
T2 chain: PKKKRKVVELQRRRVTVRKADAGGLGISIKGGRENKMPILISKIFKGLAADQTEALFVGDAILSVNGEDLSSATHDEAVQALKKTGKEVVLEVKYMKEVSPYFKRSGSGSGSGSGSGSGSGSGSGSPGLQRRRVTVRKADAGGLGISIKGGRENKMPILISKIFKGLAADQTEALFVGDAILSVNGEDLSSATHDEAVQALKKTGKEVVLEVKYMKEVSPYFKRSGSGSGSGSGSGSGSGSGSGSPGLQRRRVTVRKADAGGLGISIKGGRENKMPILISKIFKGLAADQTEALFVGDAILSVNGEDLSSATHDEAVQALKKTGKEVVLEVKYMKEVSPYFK

B1: MBP-43-8(low)-syn. lig.(S5), ligand VKESLV (other, not shown: large carriers)
chain: GEAPFQCRICMANFSRQDRLDRHTRTHTGEKPFQCRICMANFSQKEHLAGHLRTHTGEKPFQCRICMANFSRRDNLNRHLKTHLRGSGSGVKESLV
EC50 of synTF titration on nc=2 DBM oligo probe (fluorescence anisotropy) in the presence of clamp [1]: 18 nM
EC50 of synTF titration on nc=3 DBM oligo probe (fluorescence anisotropy) in the presence of three-PDZ clamp [2]: 5.1 nM
